# Assay results: paper PMC7556403
# How the values were obtained:
# [1] = target: MBP-APO1 mXT (aggregated form) M46A;R48S;I80T;W121A;L173A;W199A;F205A;del1-14 (human) (UniProt P41238); assay: EMSA; conditions: no A1CF; aggregated form; weaker than WT; 50 nM nucleic acid, 20 mM HEPES, 50 mM NaCl, 5 mM DTT, 10% glycerol (0.4 U RNase inhibitor for RNA), pH not stated for EMSA (HEPES pH 7.5 in protein buffers) …
# [2] = target: MBP-APO1 mXT (dimeric form) M46A;R48S;I80T;W121A;L173A;W199A;F205A;del1-14 (human) (UniProt P41238); assay: EMSA; conditions: no A1CF; dimeric form; 50 nM nucleic acid, 20 mM HEPES, 50 mM NaCl, 5 mM DTT, 10% glycerol (0.4 U RNase inhibitor for RNA), pH not stated for EMSA (HEPES pH 7.5 in protein buffers) …
sequence,measurement,setting,value
GGAUAUAUGAUACAAUUUGAUCAGUAUAUUAAAGAUAGUUAUGAUUUACAUGAUU [APOB RNA 55 nt],Kd,[1],460 nM
same,Kd,[2],140 nM
